Data from US20230114801A1 (SYSTIMMUNE, published 2023).

T1: CD19 (UniProt P15391 20-291, limits assumed)
T1 sequence (looked up): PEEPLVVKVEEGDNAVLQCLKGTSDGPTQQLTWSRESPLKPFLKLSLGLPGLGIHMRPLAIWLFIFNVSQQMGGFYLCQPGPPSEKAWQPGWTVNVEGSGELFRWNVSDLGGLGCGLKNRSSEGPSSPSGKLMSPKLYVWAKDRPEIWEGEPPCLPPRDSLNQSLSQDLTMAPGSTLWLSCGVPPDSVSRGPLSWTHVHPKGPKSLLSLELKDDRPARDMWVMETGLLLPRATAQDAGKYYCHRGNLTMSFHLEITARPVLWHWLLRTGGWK


Columns and labels:
[1] = biological target: T2, human PD-L1 (human, UniProt Q9NZQ7 19-238); experiment: BLI (Octet), binder on AHC sensor; antigen conditions not stated
T2 construct: Soluble antigen in Octet; bought; also called human PD-L1 (Acro PD1-H5229)

[2] = biological target: T3, human 4-1BB (human, UniProt Q07011 24-186, limits assumed); experiment: as above
T3 construct: Soluble antigen in Octet; construct not described

[3] = biological target: T4, human CD3 (human, UniProt P07766 23-126; P04234 22-105); experiment: BLI (Octet), binder on AHC sensor, His-tagged human CD3 (series from 200 nM or single 100 nM), 1:1 fit
T4 construct: also called His-tagged human CD3; human CD3 (Acro CDD-H52W1)

[4] = biological target: T1, CD19; experiment: BLI (Octet), binder on AHC sensor; antigen conditions not stated

Binder | Kd [1] | Kd [2] | Kd [3] | Kd [4]
SI-68P15 (other, penta-miniGNC; D1 αCD3** (humanized framework 1), D2 αCD19, D3 αEGFR (Fab), D4 α4-1BB, D5 αPD-L1) chain 1: EIVMTQSPSTLSASVGDRVIITCQASESISSWLAWYQQKPGKAPKLLIYEASKLASGVPSRFSGSGSGAEFTLTISSLQPDDFATYYCQGYFYFISRTYVNSFGQGTKLTVLGGGGSGGGGSGGGGSGGGGSEVQLVESGGGLVQPGGSLRLSCAASGFTISTNAMSWVRQAPGKGLEWVGVITGRDITYYASWAKGRFTISRDTSKNTVYLQMNSLRAEDTAVYYCARDGGSSAITSNNIWGQGTLVTVSSGGGGSGGGGSQVQLQQSGPGLVKPSETLSITCTVSGFSLTNYGVHWIRQAPGKGLEWLGVIWSGGNTDYNTPFTSRFTITKDNSKNQVYFKLRSVRADDTAIYYCARALTYYDYEFAYWGQGTLVTVSSASTKGPSVFPLAPSSKSTSGGTAALGCLVKDYFPEPVTVSWNSGALTSGVHTFPAVLQSSGLYSLSSVVTVPSSSLGTQTYICNVNHKPSNTKVDKRVEPKSCDKTHTCPPCPAPEAAGGPSVFLFPPKPKDTLMISRTPEVTCVVVDVSHEDPEVKFNWYVDGVEVHNAKTKPREEQYNSTYRVVSVLTVLHQDWLNGKEYKCAVSNKALPAPIEKTISKAKGQPREPQVYTLPPSRDELTKNQVSLSCAVKGFYPSDIAVEWESNGQPENNYKTTPPVLDSDGSFFLVSKLTVDKSRWQQGNVFSCSVMHEALHNHYTQKSLSLSPGGGGGSGGGGSDVVMTQSPSSVSASVGDRVTITCQASQNIRTYLSWYQQKPGKAPKLLIYAAANLASGVPSRFSGSGSGTDFTLTISDLEPGDAATYYCQSTYLGTDYVGGAFGGGTKLTVLGGGGSGGGGSGGGGSGGGGSEVQLVESGGGLVQPGGSLRLSCTASGFTISSYHMQWVRQAPGKGLEYIGTISSGGNVYYASSARGRFTISRPSSKNTVDLQMNSLRAEDTAVYYCARDSGYSDPMWGQGTLVTVSS chain 2: ENVLTQSPASLSASPGERVTITCSASSSVSYMHWYQQKPGQAPKLWIYDTSKLASGVPSRFSGSGSGNDHTLTISSMEPEDFATYYCFQGSVYPFTFGQGTKVTVLGGGGSGGGGSGGGGSGGGGSQVTLKESGPGLVQPGQTLSLTCAFSGFSLSTSGMGVGWIRQPPGKGLEWLAHIWWDDDKRYNPALKSRLTISKDTSKNQVYLQMNSLDAEDTAVYYCARMELWSYYFDYWGQGTLVTVSSGGGGSGGGGSEIVLTQSPSTLSVSPGERATFSCRASQSIGTNIHWYQQKPGKPPRLLIKYASESISGIPDRFSGSGSGTEFTLTISSVQSEDFAVYYCQQNNNWPTTFGPGTKLTVLRTVAAPSVFIFPPSDEQLKSGTASVVCLLNNFYPREAKVQWKVDNALQSGNSQESVTEQDSKDSTYSLSSTLTLSKADYEKHKVYACEVTHQGLSSPVTKSFNRGECGGDKTHTCPPCPAPEAAGGPSVFLFPPKPKDTLMISRTPEVTCVVVDVSHEDPEVKFNWYVDGVEVHNAKTKPREEQYNSTYRVVSVLTVLHQDWLNGKEYKCAVSNKALPAPIEKTISKAKGQPREPQVYTLPPSRDELTKNQVSLWCLVKGFYPSDIAVEWESNGQPENNYKTTPPVLDSDGSFFLYSKLTVDKSRWQQGNVFSCSVMHEALHNRFTQKSLSLSPGGGGGSGGGGSDIQMTQSPSTLSASVGDRVTITCQASQSISSHLNWYQQKPGKAPKLLIYKASTLASGVPSRFSGSGSGTEFTLTISSLQPDDFATYYCQQGYSWGNVDNVFGGGTKVTVLGGGGSGGGGSGGGGSGGGGSEVQLLESGGGLVQPGGSLSLSCAASGFSFSSGYDMCWVRQAPGKGLEWIACIAAGSAGITYDANWAKGRFTISRDNSKNTLYLQMNSLRAEDTAVYYCARSAFSFDYAMDLWGQGTLVTVSS | 0.4 nM | 17.1 nM | 22.4 nM | 
SI-68P16 (other, penta-miniGNC; D1 αCD3***** (humanized framework 4), D2 αCD19, D3 αEGFR (Fab), D4 α4-1BB, D5 αPD-L1) chain 1: DPVLTQSPSSLSASVGDRVTISCQSSQSVAKNNNLAWFQQKPGQAPKLLIYSASTLAAGVPSRFSGSGSGTDFTLTISSVQPEDFATYYCSARDSGNIQSFGGGTKVEIKGGGGSGGGGSGGGGSGGGGSQQLVESGGGLVKPGGSLRLSCAASGIDLSSNAIGWVRQAPGKGLEWVGVIFGSGNTYYASWAKGRFTISRSKNTVYLQMNSLRAEDTAVYYCARGGYSSDIWGQGTLVTVSSGGGGSGGGGSQVQLQQSGPGLVKPSETLSITCTVSGFSLTNYGVHWIRQAPGKGLEWLGVIWSGGNTDYNTPFTSRFTITKDNSKNQVYFKLRSVRADDTAIYYCARALTYYDYEFAYWGQGTLVTVSSASTKGPSVFPLAPSSKSTSGGTAALGCLVKDYFPEPVTVSWNSGALTSGVHTFPAVLQSSGLYSLSSVVTVPSSSLGTQTYICNVNHKPSNTKVDKRVEPKSCDKTHTCPPCPAPEAAGGPSVFLFPPKPKDTLMISRTPEVTCVVVDVSHEDPEVKFNWYVDGVEVHNAKTKPREEQYNSTYRVVSVLTVLHQDWLNGKEYKCAVSNKALPAPIEKTISKAKGQPREPQVYTLPPSRDELTKNQVSLSCAVKGFYPSDIAVEWESNGQPENNYKTTPPVLDSDGSFFLVSKLTVDKSRWQQGNVFSCSVMHEALHNHYTQKSLSLSPGGGGGSGGGGSDVVMTQSPSSVSASVGDRVTITCQASQNIRTYLSWYQQKPGKAPKLLIYAAANLASGVPSRFSGSGSGTDFTLTISDLEPGDAATYYCQSTYLGTDYVGGAFGGGTKLTVLGGGGSGGGGSGGGGSGGGGSEVQLVESGGGLVQPGGSLRLSCTASGFTISSYHMQWVRQAPGKGLEYIGTISSGGNVYYASSARGRFTISRPSSKNTVDLQMNSLRAEDTAVYYCARDSGYSDPMWGQGTLVTVSS chain 2: ENVLTQSPASLSASPGERVTITCSASSSVSYMHWYQQKPGQAPKLWIYDTSKLASGVPSRFSGSGSGNDHTLTISSMEPEDFATYYCFQGSVYPFTFGQGTKVTVLGGGGSGGGGSGGGGSGGGGSQVTLKESGPGLVQPGQTLSLTCAFSGFSLSTSGMGVGWIRQPPGKGLEWLAHIWWDDDKRYNPALKSRLTISKDTSKNQVYLQMNSLDAEDTAVYYCARMELWSYYFDYWGQGTLVTVSSGGGGSGGGGSEIVLTQSPSTLSVSPGERATFSCRASQSIGTNIHWYQQKPGKPPRLLIKYASESISGIPDRFSGSGSGTEFTLTISSVQSEDFAVYYCQQNNNWPTTFGPGTKLTVLRTVAAPSVFIFPPSDEQLKSGTASVVCLLNNFYPREAKVQWKVDNALQSGNSQESVTEQDSKDSTYSLSSTLTLSKADYEKHKVYACEVTHQGLSSPVTKSFNRGECGGDKTHTCPPCPAPEAAGGPSVFLFPPKPKDTLMISRTPEVTCVVVDVSHEDPEVKFNWYVDGVEVHNAKTKPREEQYNSTYRVVSVLTVLHQDWLNGKEYKCAVSNKALPAPIEKTISKAKGQPREPQVYTLPPSRDELTKNQVSLWCLVKGFYPSDIAVEWESNGQPENNYKTTPPVLDSDGSFFLYSKLTVDKSRWQQGNVFSCSVMHEALHNRFTQKSLSLSPGGGGGSGGGGSDIQMTQSPSTLSASVGDRVTITCQASQSISSHLNWYQQKPGKAPKLLIYKASTLASGVPSRFSGSGSGTEFTLTISSLQPDDFATYYCQQGYSWGNVDNVFGGGTKVTVLGGGGSGGGGSGGGGSGGGGSEVQLLESGGGLVQPGGSLSLSCAASGFSFSSGYDMCWVRQAPGKGLEWIACIAAGSAGITYDANWAKGRFTISRDNSKNTLYLQMNSLRAEDTAVYYCARSAFSFDYAMDLWGQGTLVTVSS | 0.5 nM | 23.3 nM |  | 2.55 nM
SI-68P13 (other, penta-miniGNC; D1 αEGFR, D2 αCD19, D3 αCD3 (Fab), D4 α4-1BB, D5 αPD-L1) chain 1: EIVLTQSPSTLSVSPGERATFSCRASQSIGTNIHWYQQKPGKPPRLLIKYASESISGIPDRFSGSGSGTEFTLTISSVQSEDFAVYYCQQNNNWPTTFGPGTKLTVLGGGGSGGGGSGGGGSGGGGSQVQLQQSGPGLVKPSETLSITCTVSGFSLTNYGVHWIRQAPGKGLEWLGVIWSGGNTDYNTPFTSRFTITKDNSKNQVYFKLRSVRADDTAIYYCARALTYYDYEFAYWGQGTLVTVSSGGGGSGGGGSEVQLVESGGGLVQPGGSLRLSCAASGFTISTNAMSWVRQAPGKGLEWIGVITGRDITYYASWAKGRFTISRDNSKNTLYLQMNSLRAEDTAVYYCARDGGSSAITSNNIWGQGTLVTVSSASTKGPSVFPLAPSSKSTSGGTAALGCLVKDYFPEPVTVSWNSGALTSGVHTFPAVLQSSGLYSLSSVVTVPSSSLGTQTYICNVNHKPSNTKVDKRVEPKSCDKTHTCPPCPAPEAAGGPSVFLFPPKPKDTLMISRTPEVTCVVVDVSHEDPEVKFNWYVDGVEVHNAKTKPREEQYNSTYRVVSVLTVLHQDWLNGKEYKCAVSNKALPAPIEKTISKAKGQPREPQVYTLPPSRDELTKNQVSLSCAVKGFYPSDIAVEWESNGQPENNYKTTPPVLDSDGSFFLVSKLTVDKSRWQQGNVFSCSVMHEALHNHYTQKSLSLSPGGGGGSGGGGSDVVMTQSPSSVSASVGDRVTITCQASQNIRTYLSWYQQKPGKAPKLLIYAAANLASGVPSRFSGSGSGTDFTLTISDLEPGDAATYYCQSTYLGTDYVGGAFGGGTKLTVLGGGGSGGGGSGGGGSGGGGSEVQLVESGGGLVQPGGSLRLSCTASGFTISSYHMQWVRQAPGKGLEYIGTISSGGNVYYASSARGRFTISRPSSKNTVDLQMNSLRAEDTAVYYCARDSGYSDPMWGQGTLVTVSS chain 2: ENVLTQSPASLSASPGERVTITCSASSSVSYMHWYQQKPGQAPKLWIYDTSKLASGVPSRFSGSGSGNDHTLTISSMEPEDFATYYCFQGSVYPFTFGQGTKVTVLGGGGSGGGGSGGGGSGGGGSQVTLKESGPGLVQPGQTLSLTCAFSGFSLSTSGMGVGWIRQPPGKGLEWLAHIWWDDDKRYNPALKSRLTISKDTSKNQVYLQMNSLDAEDTAVYYCARMELWSYYFDYWGQGTLVTVSSGGGGSGGGGSDVVMTQSPSTLSASVGDRVTINCQASESISSWLAWYQQKPGKAPKLLIYEASKLASGVPSRFSGSGSGTEFTLTISSLQPDDFATYYCQGYFYFISRTYVNSFGGGTKVEIKRTVAAPSVFIFPPSDEQLKSGTASVVCLLNNFYPREAKVQWKVDNALQSGNSQESVTEQDSKDSTYSLSSTLTLSKADYEKHKVYACEVTHQGLSSPVTKSFNRGECGGDKTHTCPPCPAPEAAGGPSVFLFPPKPKDTLMISRTPEVTCVVVDVSHEDPEVKFNWYVDGVEVHNAKTKPREEQYNSTYRVVSVLTVLHQDWLNGKEYKCAVSNKALPAPIEKTISKAKGQPREPQVYTLPPSRDELTKNQVSLWCLVKGFYPSDIAVEWESNGQPENNYKTTPPVLDSDGSFFLYSKLTVDKSRWQQGNVFSCSVMHEALHNRFTQKSLSLSPGGGGGSGGGGSDIQMTQSPSTLSASVGDRVTITCQASQSISSHLNWYQQKPGKAPKLLIYKASTLASGVPSRFSGSGSGTEFTLTISSLQPDDFATYYCQQGYSWGNVDNVFGGGTKVTVLGGGGSGGGGSGGGGSGGGGSEVQLLESGGGLVQPGGSLSLSCAASGFSFSSGYDMCWVRQAPGKGLEWIACIAAGSAGITYDANWAKGRFTISRDNSKNTLYLQMNSLRAEDTAVYYCARSAFSFDYAMDLWGQGTLVTVSS | 1.04 nM | 14.8 nM | 25.9 nM | 4.33 nM
